{"source": "paper PMC9440474", "about": "(2022)", "binders": {"B1": {"name": "Sortase A (protein)", "chain": "MKKWTNRLMTIAGVVLILVAAYLFAKPHIDNYLHDKDKDEKIEQYDKNVKEQASKDKKQQAKPQIPKDKSKVAGYIEIPDADIKEPVYPGPATPEQLNRGVSFAEENESLDDQNISIAGHTFIDRPNYQFTNLKAAKKGSMVYFKVGNETRKYKMTSIRDVKPTDVGVLDEQKGKDKQLTLITCDDYNEKTGVWEKRKIFVATEVK"}}, "key": {"S1_SS*": {"biological_target": "T1, S1_SS* (disulfide 2-9 (inferred))", "T1 chain": "ACLIPSWGCGGG-{Dap(FAM)}", "assay": "fluorescence polarization"}, "S1_APBA-3*": {"biological_target": "T2, S1_APBA-3* (linker (positions not given here) via APBA‑3; reading uncertain)", "T2 chain": "ACLIPSWGCGGG-{Dap(FAM)}", "assay": "fluorescence polarization"}, "S1_SS": {"biological_target": "T3, S1_SS (disulfide 2-9 (inferred))", "T3 chain": "ACLIPSWGCGGG", "assay": "fluorescence polarization competition"}}, "note": "Bridge positions count the residues as written; N and C are the ends. Ends that are not written are not given here. APBA‑3 = not defined here", "data": [{"binder": "B1", "values": [{"measurement": "Kd", "setting": "S1_SS*", "value": 5.2, "unit": "µM"}, {"measurement": "Kd", "setting": "S1_APBA-3*", "value": 64, "unit": "µM"}, {"measurement": "IC50", "setting": "S1_SS", "value": 26, "unit": "µM"}]}]}
